Laboratory results from the supplement of paper PMC10567573.

B1: RBBP5 (parent)
chain: TGTSNTTAIKSIEFARKGSCFLIN
B2: KRT34 (parent)
chain: YQSYFKTIEELQQKILCAKAENAR

Variants of: B1
Assay: protein stability index of a GFP-peptide fusion (GPS, HEK-293T) (PSI 1-6); higher = more stable
Conditions: c terminus: a fixed tail appended
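Note: lentivirally expressed fusions sorted by FACS into six bins by GFP to DsRed ratio, PSI derived from sequencing read proportions per bin multiplied by bin number.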

Variant | protein stability index
E13W | 2.23
E13D | 2.32
E13F | 2.75
E13H | 2.4
E13N | 1.75
E13P | 1.75
E13Y | 2.6
E13M | 2.15
E13L | 2.38
E13I | 2.89
E13V | 1.54
E13Q | 1.67
E13G | 2.11
E13A | 1.92
E13S | 2.38
E13C | 1.97
E13T | 2.31
E13K | 2.19
E13R | 1.72
F21G | 3.35
F21A | 3.36
F21M | 3.52
F21W | 2.25
F21Q | 3.17
F21L | 2.07
F21K | 3.48

Variant | protein stability index
F21H | 2.86
F21N | 3.53
F21Y | 2.56
F21V | 2.75
F21I | 2.37
F21R | 3.15
F21D | 3.83
F21S | 3.09
F21T | 3.5
F21E | 3.73
F21P | 3.13
F21C | 2.44
F14A | 3.06
F14R | 3.05
F14E | 3.84
F14L | 2.51
F14W | 2.07
F14M | 2.69
F14C | 2.53
F14V | 2.86
F14G | 2.76
F14S | 3.42
F14D | 3.15
F14H | 2.73
F14N | 3.17
F14T | 2.97

Variant | protein stability index
F14P | 3.05
F14K | 3.17
F14Y | 2.38
F14Q | 3.12
F14I | 2.64
L22F | 1.99
L22M | 2.64
L22V | 2.28
L22S | 3.05
L22R | 2.81
L22G | 3.03
L22P | 3.53
L22Y | 2.54
L22Q | 3.48
L22N | 3.09
L22D | 3.15
L22C | 2.79
L22K | 3.21
L22T | 3.09
L22W | 1.71
L22A | 2.33
L22I | 2.55
L22H | 2.52
L22E | 3.31
R16S | 2.44
R16A | 1.89

Variant | protein stability index
R16Q | 2.73
R16K | 2.76
R16D | 2.7
R16W | 1.74
R16G | 2.42
R16C | 1.77
R16E | 3
R16M | 1.75
R16N | 3.21
R16L | 3.26
R16T | 2.26
R16V | 1.99
R16Y | 2.49
R16P | 2.34
R16F | 2.26
R16H | 2.15
R16I | 3.29
S11V | 2.48
S11R | 2.12
S11D | 2.6
S11Y | 1.32
S11C | 1.74
S11G | 2.12
S11P | 2.61
S11A | 2.18
S11M | 2.09

Variant | protein stability index
S11K | 2.13
S11F | 2.45
S11Q | 2.74
S11L | 2.5
S11W | 2.77
S11E | 2.23
S11T | 2.1
S11N | 2.92
S11H | 3.02
S11I | 3.31
A8W | 2.62
A8Y | 2.22
K10A | 1.64
K10R | 2.29
K10I | 2.15
K10M | 1.94
K10S | 2.93
K10L | 2.74
K10D | 2.08
K10Q | 2.82
K10T | 1.77
K10E | 2.62
K10H | 2.77
K10P | 2.38
K10V | 1.93
K10Y | 3.11

Variant | protein stability index
K10C | 2.38
K10N | 1.86
K10G | 2.19
K10F | 2.9
I23C | 2.36
I23W | 2.36
I23D | 3.02
I23T | 3.5
I23K | 3.62
I23Y | 2.58
I23M | 2.49
I23E | 3.38
I23Q | 3.31
I23L | 2.05
I23F | 1.98
I23P | 2.82
I23S | 3.1
I23N | 2.99
I23H | 2.79
I23G | 2.73
I23V | 2.62
I23A | 2.67
I23R | 3.03
I12P | 3
I12S | 2.67
I12T | 2.61

Variant | protein stability index
I12E | 3.5
I12D | 2.79
I12H | 2.94
I12Q | 3.29
I12K | 2.23
I12V | 2.6
I12L | 1.78
I12W | 2.4
I12R | 2.57
I12G | 2.4
I12Y | 2.12
I12M | 2.61
I12F | 2
I12N | 2.67
I12A | 2.94
I12C | 2.67
S19Q | 2.24
S19I | 2.75
S19V | 2.25
S19C | 2.67
S19H | 2.04
S19F | 1.61
S19N | 2.17
S19A | 1.62
S19G | 1.93
S19D | 3.72

Variant | protein stability index
S19L | 2.56
S19P | 2.04
S19K | 2.92
S19R | 2.24
S19W | 1.94
S19Y | 1.26
S19T | 1.79
S19M | 1.59
S19E | 2.33
K17L | 1.75
K17A | 2.24
K17D | 2.7
K17P | 2.3
K17Q | 2.5
K17I | 1.29
K17F | 2.17
K17N | 2.63
K17E | 2.6
K17V | 1.7
K17H | 2.33
K17T | 2.46
K17C | 1.8
K17R | 2.7
K17Y | 2.22
K17W | 2.11
K17M | 1.73

Variant | protein stability index
K17G | 2.24
K17S | 2.47
G18Q | 2.28
G18S | 2.32
G18P | 2.35
G18H | 1.74
G18L | 2.35
G18I | 2.2
G18F | 1.99
G18E | 2.62
G18Y | 2.07
G18R | 2.15
G18N | 2.18
G18D | 2.89
G18M | 1.85
G18T | 1.71
G18V | 3.95
G18C | 1.63
G18A | 1.9
G18W | 1.62
G18K | 2.3
N24K | 2.02
N24E | 3.01
N24M | 2.16
N24Y | 1.96
N24A | 1.89

Variant | protein stability index
N24L | 2.22
N24G | 2.27
N24C | 2.38
N24D | 2.85
N24H | 2.35
N24P | 3.12
N24F | 2.74
N24Q | 1.79
N24S | 2.04
N24W | 2.71
N24T | 1.76
N24R | 2.09
A15C | 1.89
A15Y | 1.74
A15V | 1.66
A15D | 2.9
A15P | 2.46
A15S | 2.09
A15R | 2.22
A15M | 1.94
A15N | 2.67
A15K | 2.42
A15W | 2.23
A15T | 1.79
A15E | 2.44
A15I | 1.63

Variant | protein stability index
A15G | 2.38
A15F | 2.52
A15Q | 2.51
A15H | 2.39
A15L | 2.58
C20F | 1.9
C20M | 2.01
C20R | 2.55
C20P | 2.74
C20V | 2.09
C20G | 2.49
C20D | 2.6
C20E | 2.98
C20K | 2.58
C20W | 1.63
C20L | 2.25
C20T | 2.56
C20S | 2.59
C20A | 2.6
C20Y | 2.12
C20H | 2.16
C20Q | 2.51
C20I | 2.23
C20N | 3.03
I9G | 2.37
I9F | 1.98

Variant | protein stability index
I9K | 2.47
I9S | 2.12
I9H | 2.35
I9Y | 1.88
I9Q | 2.62
I9M | 2.67
I9A | 2.48
I9E | 2.91
I9T | 2.92
I9D | 2.86
I9R | 2.34
I9N | 2.44
I9C | 2.28
I9W | 1.5
I9L | 2.03
I9P | 2.61
I9V | 2.76

Variants of: B2
Assay: as above
Conditions: c terminus: a fixed tail appended

Variant | protein stability index
Y1T | 3.08
Y1L | 1.55
Y1D | 4.17
Y1V | 2.27
Y1M | 2.1
Y1P | 3.59
Y1H | 2.56
Y1E | 4.59
Y1K | 2.88
Y1A | 3.3
Y1N | 3.45
Y1I | 1.52
Y1Q | 3.45
Y1S | 2.93
Y1F | 1.96
Y1R | 2.94

Variant | protein stability index
Y1C | 2.23
Y1G | 3.95
Q2L | 1.9
Q2E | 3.07
Q2H | 3.43
Q2N | 2.28
Q2M | 2.14
Q2G | 2.12
Q2I | 1.57
Q2F | 2.53
Q2P | 2.26
Q2C | 1.88
Q2A | 2.1
Q2K | 2.54
Q2D | 2.13
